Tests used:
Assay in all cases: ITC
[1] = biological target: T1, CaM N-lobe fragment (residues 1–80) (UniProt P0DP23 1-80)
[2] = biological target: T2, CaM C-lobe fragment (residues 80–149) (UniProt P0DP23 80-149)
[3] = biological target: T2, CaM C-lobe fragment (residues 80–149); remark: listed apart in the source
[4] = biological target: Calmodulin (CaM), full-length (UniProt P0DP23 1-149)
[5] = biological target: T1, CaM N-lobe fragment (residues 1–80); remark: listed apart in the source

Row | Binder | Ka [1] | Ka [2] | Kd [3] | Kd [4] | Kd [5]
1 | NDRLQELVKLEKERTEKVKEKLIDP (peptide, UniProt Q14028 565-589, looked up) [CaM1^F575E peptide (CNGB1 residues 565–589, F575E)] | < 20000 M⁻¹ |  |  |  | > 50 µM
2 | GGKGAKGGKLAHERARLKELAALEAAAK (peptide, UniProt Q14028 1120-1147, looked up) [CaM2^L1132E peptide (CNGB1 residues 1120–1147, L1132E)] |  | 18000 M⁻¹ | 54 ± 5 µM |  | 
3 | GGKGAKGGKLAHLRAREKELAALEAAAK (peptide, UniProt Q14028 1120-1147, looked up) [CaM2^L1136E peptide (CNGB1 residues 1120–1147, L1136E)] |  | 12000 M⁻¹ | 84 ± 10 µM |  | 

More lines, in order of falling Kd [3], values ahead:

Row | Ka [1] | Ka [2] | Kd [3] | Kd [4] | Kd [5] | Binder
4 | 180000 M⁻¹ | 34000 M⁻¹ | 29 ± 5 µM |  | 5.7 ± 1 µM | NDRLQELVKLFKERTEKVKEKLIDP (peptide, UniProt Q14028 565-589, looked up) [CaM1 peptide, CNGB1 residues 565–589]
5 | < 18000 M⁻¹ | 9.8e+06 M⁻¹ | 0.1 ± 0.02 µM | 25 ± 4 µM |  | GGKGAKGGKLAHLRARLKELAALEAAAK (peptide, UniProt Q14028 1120-1147, looked up) [CaM2 peptide, CNGB1 residues 1120–1147]

Reference: article PMC9810080 (Biochemistry, 2022)
